{"source": "patent US20170137818", "about": "“APTAMER INHIBITING BIOLOGICAL ACTIVITY OF AUTOTAXIN BY BINDING WITH AUTOTAXIN, AND USE THEREOF” (RIBOMIC INC., published 2017)", "binders": {"B1": {"name": "12(144) (ssDNA)", "DNA": "CCTGGACGGAACCAGAATACTTTTGGTCTCCAGG", "modifications": "2'-OMe C7,G9,A14,G15,A19,C20,A32,G33,G34; P-methyl C1,G5,G8,C12,A16,T21,T23,C28,C30,C31,G34; 5' 40 kDa PEG via ssH linker, 3' idT"}, "B2": {"name": "12(48) (ssDNA)", "DNA": "B1 DNA", "modifications": "2'-OMe C7,G9,A14,G15,A19,C20,A32,G33,G34; 5' 40 kDa PEG (GL2-400GS2) via ssH linker, 3' idT"}, "B3": {"name": "SEQ 8 aptamer (ssDNA)", "DNA": "GTGGTCTAGCTGTACTCCGAAAGCCGGAACCGTGCCAATGGTCGCTACTTCAGCTCCCCACAGTCAACGAGCTA"}}, "key": {"autotaxin (ENPP2/NPP2) [1]": {"target": "T1, autotaxin (ENPP2/NPP2) (Homo sapiens, UniProt Q13822 Q13822:36-863)", "assay": "inhibition; LysoPLD assay, 2 mM 14:0 LPC, 2.1 nM autotaxin, 37 C"}, "[2]": {"target": "T2, autotaxin (endogenous, human pooled serum) (Homo sapiens, UniProt Q13822 Q13822:36-863)", "assay": "inhibition; LPA production in serum, 0.025 uM"}, "autotaxin (ENPP2/NPP2) [3]": {"target": "T1, autotaxin (ENPP2/NPP2)", "assay": "inhibition; NPP2 assay, 37 C; no SPR binding"}, "autotaxin (ENPP2/NPP2) [4]": {"target": "T1, autotaxin (ENPP2/NPP2)", "assay": "SPR; not more than 10% of SEQ 12 signal; aptamer 0.3 uM; solution A"}, "[5]": {"target": "T2, autotaxin (endogenous, human pooled …)", "assay": "inhibition; LPA production in serum, 1.0 uM"}, "FGF2": {"target": "FGF2 (UniProt P09038 P09038:135-288)", "sequence (P09038 135-288, one chain of several)": "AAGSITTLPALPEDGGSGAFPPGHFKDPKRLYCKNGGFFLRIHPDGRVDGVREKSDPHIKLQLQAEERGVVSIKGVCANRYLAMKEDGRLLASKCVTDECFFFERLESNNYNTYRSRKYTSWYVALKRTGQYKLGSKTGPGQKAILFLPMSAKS", "assay": "SPR; specificity control; FGF2 immobilized, aptamer 0.3 uM; solution A", "details": "tags: PeproTech"}, "autotaxin (ENPP2/NPP2) [6]": {"target": "T1, autotaxin (ENPP2/NPP2)", "assay": "inhibition; NPP2 assay, pNP-TMP, 37 C"}, "autotaxin (ENPP2/NPP2) [7]": {"target": "T1, autotaxin (ENPP2/NPP2)", "assay": "inhibition; NPP2 assay, 1 mM pNP-TMP, 0.3 nM autotaxin, 37 C"}}, "data": [{"binder": "B1", "values": [{"measurement": "IC50", "setting": "autotaxin (ENPP2/NPP2) [1]", "result": 1.6, "unit": "nM"}, {"measurement": "activity", "setting": "[2]", "result": 87, "unit": "% inhibition"}]}, {"binder": "CCTGGACGGAACCAATACTTGGTCTCCAGG (ssDNA)", "note": "[SEQ 15 aptamer]", "values": [{"measurement": "IC50", "setting": "autotaxin (ENPP2/NPP2) [3]", "result": 990, "unit": "nM"}, {"measurement": "binding result", "setting": "autotaxin (ENPP2/NPP2) [4]", "result": "no binding"}]}, {"binder": "B2", "values": [{"measurement": "activity", "setting": "[5]", "result": 92, "unit": "% inhibition"}, {"measurement": "binding result", "setting": "FGF2", "result": "no binding"}]}, {"binder": "CCTGGACGGAACCAGAATACTTTTGGTCTCCAGG (ssDNA, 2'-OMe C7,G9,A14,G15,A19,C20,A32,G33,G34; 3' idT)", "note": "[12(148)]", "values": [{"measurement": "IC50", "setting": "autotaxin (ENPP2/NPP2) [6]", "result": 6.8, "unit": "nM"}]}, {"binder": "B3", "values": [{"measurement": "IC50", "setting": "autotaxin (ENPP2/NPP2) [7]", "result": 10, "unit": "nM"}]}]}
